The record followed here is patent US20250011410A1 (INVETX, published 2025).

Substitutions are numbered along the chain they refer to. Numbers in names are those of the source.

B1: AHF17591 (Fab, V domains shown, not shown: small tags and cut ends)
VH: DVQLVESGGDLVKPGGSLRLTCVASGLSLTSSSMVWVRQAPGKGLQWVSTIYSNRGTYYTDSVKGRFTISKDNAENTLYLQMNNLKTEDTATYYCASIYYYDADYLHWYFDEWGQGALVTVSS
VL: EIQMTQSPTSLSASVGDRVTITCRASEGIANNLSWYQQTPGKAPKLLIYATSILHSGVPSRFSGSGSGTDFTLTISSLQPEDFATYYCQQGYKWPLTFGGGTKLEITR
B2: AHF17592 (Fab, V domains shown, not shown: small tags and cut ends)
VH: B1 VH with E112F
VL: B1 VL with A30S, I53V
B3: felinized clone 101 Fab-SASA variant Y99F (VH) (Fab, V domains shown, not shown: small tags and cut ends)
VH: B1 VH with V35S, R55G, Y99F, E112F
VL: B1 VL with A30S, I53N
B4: felinized clone 101 Fab-SASA variant Y58D (VH) (Fab, V domains shown, not shown: small tags and cut ends)
VH: B1 VH with V35S, R55G, Y58D, E112F
VL: B1 VL with A30S, I53N
B5: felinized clone 101 Fab-SASA variant S31H (VH) (Fab, V domains shown, not shown: small tags and cut ends)
VH: B1 VH with S31H, V35S, R55G, E112F
VL: B1 VL with A30S, I53N
B6: felinized clone 101 Fab-SASA variant S56D (VL) (Fab, V domains shown, not shown: small tags and cut ends)
VH: B1 VH with V35S, R55G, E112F
VL: B1 VL with A30S, I53N, S56D
B7: felinized clone 101 Fab-SASA variant Y101H (VH) (Fab, V domains shown, not shown: small tags and cut ends)
VH: B1 VH with V35S, R55G, Y101H, E112F
VL: B1 VL with A30S, I53N
B8: felinized clone 101 Fab-SASA variant T60E (VH) (Fab, V domains shown, not shown: small tags and cut ends)
VH: B1 VH with V35S, R55G, T60E, E112F
VL: B1 VL with A30S, I53N
B9: felinized clone 101 Fab-SASA variant S30V (VL) (Fab, V domains shown, not shown: small tags and cut ends)
VH: B1 VH with V35S, R55G, E112F
VL: B1 VL with A30V, I53N
B10: felinized clone 101 Fab-SASA variant T60H (VH) (Fab, V domains shown, not shown: small tags and cut ends)
VH: B1 VH with V35S, R55G, T60H, E112F
VL: B1 VL with A30S, I53N
B11: felinized clone 101 Fab-SASA variant T60D (VH) (Fab, V domains shown, not shown: small tags and cut ends)
VH: B1 VH with V35S, R55G, T60D, E112F
VL: B1 VL with A30S, I53N
B12: felinized clone 101 Fab-SASA variant S53P (VH) (Fab, V domains shown, not shown: small tags and cut ends)
VH: B1 VH with V35S, S53P, R55G, E112F
VL: B1 VL with A30S, I53N
B13: felinized clone 101 Fab-SASA variant S97M (VH) (Fab, V domains shown, not shown: small tags and cut ends)
VH: B1 VH with V35S, R55G, S97M, E112F
VL: B1 VL with A30S, I53N
B14: felinized clone 101 Fab-SASA variant T60S (VH) (Fab, V domains shown, not shown: small tags and cut ends)
VH: B1 VH with V35S, R55G, T60S, E112F
VL: B1 VL with A30S, I53N
B15: felinized clone 101 Fab-SASA variant S56T (VL) (Fab, V domains shown, not shown: small tags and cut ends)
VH: B1 VH with V35S, R55G, E112F
VL: B1 VL with A30S, I53N, S56T
B16: felinized clone 101 Fab-SASA variant S97H (VH) (Fab, V domains shown, not shown: small tags and cut ends)
VH: B1 VH with V35S, R55G, S97H, E112F
VL: B1 VL with A30S, I53N
B17: felinized clone 101 Fab-SASA variant T30N (VH) (Fab, V domains shown, not shown: small tags and cut ends)
VH: B1 VH with T30N, V35S, R55G, E112F
VL: B1 VL with A30S, I53N
B18: felinized clone 101 Fab-SASA variant S56N (VL) (Fab, V domains shown, not shown: small tags and cut ends)
VH: B1 VH with V35S, R55G, E112F
VL: B1 VL with A30S, I53N, S56N
B19: felinized clone 101 Fab-SASA variant T30R (VH) (Fab, V domains shown, not shown: small tags and cut ends)
VH: B1 VH with T30R, V35S, R55G, E112F
VL: B1 VL with A30S, I53N
B20: felinized clone 101 Fab-SASA variant S34A (VL) (Fab, V domains shown, not shown: small tags and cut ends)
VH: B1 VH with V35S, R55G, E112F
VL: B1 VL with A30S, S34A, I53N
B21: felinized clone 101 Fab-SASA variant S97Q (VH) (Fab, V domains shown, not shown: small tags and cut ends)
VH: B1 VH with V35S, R55G, S97Q, E112F
VL: B1 VL with A30S, I53N
notes: Fab-SASA in conditioned medium
B22: felinized clone 101 Fab-SASA variant S62D (VH) (Fab, V domains shown, not shown: small tags and cut ends)
VH: B1 VH with V35S, R55G, S62D, E112F
VL: B1 VL with A30S, I53N
B23: felinized clone 101 Fab-SASA variant S56E (VL) (Fab, V domains shown, not shown: small tags and cut ends)
VH: B1 VH with V35S, R55G, E112F
VL: B1 VL with A30S, I53N, S56E
B24: felinized clone 101 Fab-SASA variant Y52W (VH) (Fab, V domains shown, not shown: small tags and cut ends)
VH: B1 VH with V35S, Y52W, R55G, E112F
VL: B1 VL with A30S, I53N
B25: felinized clone 101 Fab-SASA variant S30Y (VL) (Fab, V domains shown, not shown: small tags and cut ends)
VH: B1 VH with V35S, R55G, E112F
VL: B1 VL with A30Y, I53N
B26: felinized clone 101 Fab-SASA variant S34G (VL) (Fab, V domains shown, not shown: small tags and cut ends)
VH: B1 VH with V35S, R55G, E112F
VL: B1 VL with A30S, S34G, I53N
B27: felinized clone 101 Fab-SASA variant S35V (VH) (Fab, V domains shown, not shown: small tags and cut ends)
VH: B1 VH with R55G, E112F
VL: B1 VL with A30S, I53N
B28: felinized clone 101 Fab-SASA variant S97T (VH) (Fab, V domains shown, not shown: small tags and cut ends)
VH: B1 VH with V35S, R55G, S97T, E112F
VL: B1 VL with A30S, I53N
notes: as for B21

In the first assay the target is T1, canine NGF tagged at the C-terminus with the Flag tag (canine, UniProt A0A8I3PYI3 122-241).
T1 construct: mature; Expressed with baculovirus technology; also called feline NGF (processed form identical)
T1 sequence (A0A8I3PYI3 entry or part of it): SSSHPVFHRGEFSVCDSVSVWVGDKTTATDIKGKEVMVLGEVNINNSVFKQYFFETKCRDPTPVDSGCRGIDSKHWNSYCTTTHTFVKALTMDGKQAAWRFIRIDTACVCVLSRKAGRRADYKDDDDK
The assay is described as follows: SPR off-rate assay, Fab-SASA on BSA chip.
Regarding B1, the Kd – broadly, the constant that tells how readily two partners part at equilibrium – is ≤ 0.00373 nM; the “Ratio (KD) WT/clones” value was determined as 926; the “Ratio (kd) WT/clones” value came to 1680; the off-rate constant (koff) (in general, the first-order rate constant of dissociation) is ≤ 1e-06 s⁻¹. Moreover, the on-rate (kon) (usually the second-order rate constant of association) is 268000 M⁻¹ s⁻¹.
Taken in the same sequence, the figures for B2 were 0.0761 nM, 45.4, 115, 1.46e-05 s⁻¹ and 192000 M⁻¹ s⁻¹.

For the next assay, the target named is T1, canine NGF tagged at the C-terminus …. In words: SPR off-rate screen, Fab-SASA on BSA chip.
For B3, the affinity, expressed as Kd, was 1.46 nM; the “Ratio WT-kd/clone-kd” value was 2.01; the koff is 0.000469 s⁻¹; the on-rate constant (kon) stood at 321000 M⁻¹ s⁻¹.
On to B4, for which the Kd was 1.47 nM, the “Ratio WT-kd/clone-kd” value turned out to be 1.68, the koff was 0.000562 s⁻¹ and the kon stood at 381000 M⁻¹ s⁻¹.
For B5, the Kd amounted to 1.98 nM, the “Ratio WT-kd/clone-kd” value came to 1.54, the koff stood at 0.000612 s⁻¹ and the on-rate (kon) turned out to be 310000 M⁻¹ s⁻¹.
Regarding B6, binding was characterised by a dissociation constant (Kd) of 2.03 nM, the “Ratio WT-kd/clone-kd” value amounted to 1.25, the koff is 0.000755 s⁻¹ and the kon came out at 372000 M⁻¹ s⁻¹.
Regarding B7, the Kd stood at 1.62 nM, the “Ratio WT-kd/clone-kd” value was 1.9, the koff is 0.000496 s⁻¹ and the kon was determined as 307000 M⁻¹ s⁻¹.
Taken in the same sequence, the figures for B8 were 2.38 nM, 1.38, 0.000683 s⁻¹ and 287000 M⁻¹ s⁻¹.
On to B9, for which the dissociation constant (Kd) was determined as 1.68 nM, the “Ratio WT-kd/clone-kd” value came out at 1.95, the koff was 0.000483 s⁻¹ and the kon turned out to be 287000 M⁻¹ s⁻¹.
Take B10: the Kd is 1.8 nM, the “Ratio WT-kd/clone-kd” value came to 1.68, the dissociation rate constant (koff) worked out at 0.000561 s⁻¹ and the kon worked out at 312000 M⁻¹ s⁻¹.
For B11, in that order: 1.93 nM, 1.66, 0.000567 s⁻¹ and 294000 M⁻¹ s⁻¹.
On to B12, for which binding was characterised by a dissociation constant (Kd) of 2.15 nM, the “Ratio WT-kd/clone-kd” value stood at 1.36, the dissociation rate constant (koff) was determined as 0.000695 s⁻¹ and the kon was 323000 M⁻¹ s⁻¹.
For B13, in that order: 1.75 nM, 2.02, 0.000466 s⁻¹ and 266000 M⁻¹ s⁻¹.
For B14, in that order: 1.76 nM, 1.65, 0.000573 s⁻¹ and 325000 M⁻¹ s⁻¹.
For B15, in that order: 1.99 nM, 1.32, 0.000714 s⁻¹ and 358000 M⁻¹ s⁻¹.
As to B16, the Kd is 1.79 nM, the “Ratio WT-kd/clone-kd” value was 1.77, the koff amounted to 0.000533 s⁻¹ and the on-rate constant (kon) came to 297000 M⁻¹ s⁻¹.
For B17, in that order: 2.12 nM, 1.34, 0.000704 s⁻¹ and 333000 M⁻¹ s⁻¹.
Regarding B18, binding was put at a Kd of 2.64 nM, the “Ratio WT-kd/clone-kd” value came to 1.04, the off-rate constant (koff) turned out to be 0.000903 s⁻¹ and the kon came out at 341000 M⁻¹ s⁻¹.
With B19, the Kd came out at 2.05 nM, the “Ratio WT-kd/clone-kd” value is 1.29, the koff is 0.00073 s⁻¹ and the kon stood at 357000 M⁻¹ s⁻¹.
With B20, the Kd stood at 1.74 nM, the “Ratio WT-kd/clone-kd” value was found to be 1.2, the koff is 0.000783 s⁻¹ and the on-rate (kon) was 450000 M⁻¹ s⁻¹.
On to B21, for which the dissociation constant (Kd) is 1.36 nM, the “Ratio WT-kd/clone-kd” value was 2.34, the dissociation rate constant (koff) is 0.000403 s⁻¹ and the kon is 297000 M⁻¹ s⁻¹.
Taken in the same sequence, the figures for B22 were 1.86 nM, 1.68, 0.00056 s⁻¹ and 301000 M⁻¹ s⁻¹.
For B23, the dissociation constant (Kd) amounted to 2.19 nM, the “Ratio WT-kd/clone-kd” value is 1.17, the koff turned out to be 0.000809 s⁻¹ and the kon worked out at 370000 M⁻¹ s⁻¹.
Turning to B24, the dissociation constant Kd turned out to be 1.5 nM, the “Ratio WT-kd/clone-kd” value was determined as 1.45, the dissociation rate constant (koff) was 0.000651 s⁻¹ and the kon stood at 434000 M⁻¹ s⁻¹.
For B25, in that order: 2.2 nM, 1.21, 0.000782 s⁻¹ and 355000 M⁻¹ s⁻¹.
On to B26, for which the dissociation constant (Kd) is 1.13 nM, the “Ratio WT-kd/clone-kd” value worked out at 1.83, the off-rate (koff) worked out at 0.000514 s⁻¹ and the kon was 456000 M⁻¹ s⁻¹.
Turning to B27, the equilibrium dissociation constant (Kd) stood at 1.17 nM, the “Ratio WT-kd/clone-kd” value came to 2.62, the dissociation rate constant (koff) came to 0.00036 s⁻¹ and the kon was found to be 309000 M⁻¹ s⁻¹.
On to B28, for which the Kd turned out to be 1.88 nM, the “Ratio WT-kd/clone-kd” value came to 1.32, the koff stood at 0.000716 s⁻¹ and the kon stood at 380000 M⁻¹ s⁻¹.
